Substitutions are numbered along the chain they refer to. Where two headings read alike, the source gives them in different places. Blank lines part the entries; values can stand above or below the molecule they belong to.
Tests used:
human BDCA-2 [1] = target: T1, human BDCA-2 (human, UniProt Q8WTT0 1-213); assay: cell-based or functional assay
T1 sequence: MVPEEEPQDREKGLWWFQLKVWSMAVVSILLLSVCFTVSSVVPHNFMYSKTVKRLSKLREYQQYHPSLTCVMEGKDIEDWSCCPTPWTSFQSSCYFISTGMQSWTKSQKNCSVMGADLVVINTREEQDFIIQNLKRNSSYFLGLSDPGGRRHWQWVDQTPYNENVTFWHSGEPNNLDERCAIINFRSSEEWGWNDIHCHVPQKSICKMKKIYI

human BDCA-2 variant [2] = target: T2, human BDCA-2 variant (human, UniProt Q8WTT0 1-213); assay: cell ELISA on human BDCA-2 variant/CHO cells, chemiluminescence
T2 construct: It was expressed on CHO-K1 cells together with full-length human FcεRIγ; also called human BDCA-2 variant/CHO cells; extracellular region of human BDCA-2
T2 chain: T1 sequence with S33C
Protocol: (§1) In order to measure the antigen-specific binding activity of the antibody, the binding of the antibody to the human BDCA-2 variant/CHO cells prepared in Example 1 was evaluated. Specifically, the human BDCA-2 variant/CHO cells were first suspended in an RPMI1640 culture medium (Life Technologies, Inc.) at 2×10⁵ cells/mL, seeded at 50 μL per well in a poly-D-lysine-coated 384-well plate (Greiner Bio-One), and cultured overnight in a CO₂ incubator set at 37° C. Then, the culture medium was removed, and 20 μL of each of a hybridoma-derived antibody (the antibody purified in Example 2) and a comparative antibody which had been diluted stepwise from a concentration of 10000 ng/mL to 4.6 ng/mL (8 steps in a 3-fold dilution series) with a diluent solution (a Hank's Balanced Salt solution supplemented with 1% bovine serum albumin) was added thereto and reacted at room temperature for 1 hour. Next, the assay plate was washed with a washing solution (a Hank's Balanced Salt solution supplemented with 0.1% bovine serum albumin) and 20 μL of an HRP-labeled rabbit anti-mouse IgG antibody ([…]: Dako Ltd.) which had been diluted 5000-fold with a diluent solution was added thereto, and reacted at room temperature for 30 minutes. Thereafter, the assay plate was washed with a washing solution, 30 μL of BM-Chemiluminescence ELISA Substrate (POD) (Roche Diagnostics. Inc.) which is a chemiluminescence detection reagent was added thereto, and the amount of chemiluminescence thereof was measured by an EnVision counter (PerkinElmer, Inc.). For the measurement results, the EC50 values were determined by fitting a four-parameter logistic curve. In this test, as a comparative antibody, AC144 (Non-Patent Documents 1 to 4, Miltenyi Biotec) which is a mouse antibody against human BDCA-2 was used.

human BDCA-2 [3] = target: T1, human BDCA-2; assay: cell-based or functional assay; remark: listed apart in the source
human BDCA-2 [4] = target: T1, human BDCA-2; assay: cell-based or functional assay; remark: listed apart in the source
human BDCA-2 variant [5] = target: T2, human BDCA-2 variant; assay: cell ELISA on human BDCA-2 variant/CHO cells, average of three independent tests
Protocol: as §1
According to the method of Example 3, for a fully human antibody, the binding activity of the antibody against an extracellular region of human BDCA-2 was evaluated. […]

B1: BDC3-12A2 (chimeric) (antibody, V domains shown)
VH: QVQLVESGGGVVQPGRSLRLSCAASGFTLSSYGMHWVRQAPGKGLEWVAVIWYDGNDKYYADSVKGRFTISRDNSKNTLYLQVNSLRAEDTAVYYCARGTGTPYWYFDLWGRGTLVTVSS
VL: EIVLTQSPATLSLSPGERATLSCRASQSVNNYLAWYQQKPGQAPRLLIYDASNRATGIPARFSGSGSGTDFTLTISSLEPEDFAVYYCQQRSTWPPYTFGQGTKLEIKR
notes: Hybridoma-derived VelocImmune antibody: human variable regions with mouse constant regions
IC50 of inhibition of IFNα production from ODN2216-stimulated human PBMC (pDCs) (human BDCA-2 [3]): 0.27 ng/mL | IC90 of inhibition of IFNα production from ODN2216-stimulated human PBMC (pDCs) (human BDCA-2 [3]): 1.03 ng/mL | EC50 (human BDCA-2 variant [2]): 0.059 µg/mL

B2: Fully human BDC3-12A2 (antibody, human IgG1, kappa, V domains shown)
VH: B1 VH
VL: B1 VL
modifications: pyroglutamylation at the N terminal of the heavy chain and deletion of lysine at the C terminal of the heavy chain in most of the purified antibody (Example 6)
notes: Human Igγ1 / human Igκ constant regions, expressed in CHOK1SV cells; also called fully human antibody of BDC3-12A2
IC50 of inhibition of IFNα production from human PBMC (pDCs), first time (human BDCA-2 [4]): 0.35 ng/mL | IC50 of inhibition of IFNα production from human PBMC (pDCs), second time (human BDCA-2 [4]): 0.68 ng/mL | IC90 of inhibition of IFNα production from human PBMC (pDCs), first time (human BDCA-2 [4]): 1.94 ng/mL | IC90 of inhibition of IFNα production from human PBMC (pDCs), second time (human BDCA-2 [4]): 1.76 ng/mL | EC50 (human BDCA-2 variant [5]): 0.08 µg/mL

B4: BDC13-32E3 (chimeric) (antibody, V domains shown)
VH: QVQLQESGPGLVKPSQTLSLTCTVSGGSISSGGYYWNWIRQHPGKGLEWIGYIYYSGNTYYNPSLKSRVTISVDTSKNQFSLKLSSVTAADAAVYHCARGYGDYGGGYFDYWGQGTLVTVSS
VL: DIQMTQSPSSLSASVGDRVTITCQASQDISNYLNWYQQKPGKAPKFLIYDVSNLETGVPSRFSGSGSGTDFTFTISSLQPEDIATYYCQQYDNLPYTFGQGTKLEIKR
notes: as for B1
IC50 of inhibition of IFNα production from ODN2216-stimulated human PBMC (pDCs) (human BDCA-2 [3]): 0.43 ng/mL | IC90 of inhibition of IFNα production from ODN2216-stimulated human PBMC (pDCs) (human BDCA-2 [3]): 1.03 ng/mL | EC50 (human BDCA-2 variant [2]): 0.096 µg/mL

B6: BDC3-12F5 (chimeric) (antibody, V domains shown)
VH: EVQLVESGGGLVQPGGSLRLSCAASGFTFSNYLMNWVRQAPGKGLEWVANIEQDGSEKYYVDSVKGRFTISRDNAKNSLYLQMNSLRAEDTAVYFCARDGDTAMITFDFWGQGTLVTVSS
VL: DIQMTQSPSSVSASVGDRVTITCRASQGIRRWLAWYQQKPGKAPKLLIYAASSLQRGVPSRFSGSGSGTDFTLTISSLQPEDFATYYCQQANSFPWTFGQGTKVEIKR
notes: as for B1
IC50 of inhibition of IFNα production from ODN2216-stimulated human PBMC (pDCs) (human BDCA-2 [3]): 0.23 ng/mL | IC90 of inhibition of IFNα production from ODN2216-stimulated human PBMC (pDCs) (human BDCA-2 [3]): 0.93 ng/mL | EC50 (human BDCA-2 variant [2]): 0.057 µg/mL

The next lines start with the values.

IC50 of inhibition of IFNα production from ODN2216-stimulated human PBMC (pDCs) (human BDCA-2 [1]): 2.57 ng/mL | IC50 of inhibition of IFNα production from human PBMC (pDCs), first time (human BDCA-2 [1]): 2.12 ng/mL | IC50 of inhibition of IFNα production from human PBMC (pDCs), second time (human BDCA-2 [1]): 3.83 ng/mL | IC90 of inhibition of IFNα production from ODN2216-stimulated human PBMC (pDCs) (human BDCA-2 [1]): 56.5 ng/mL | IC90 of inhibition of IFNα production from human PBMC (pDCs), first time (human BDCA-2 [1]): 20.6 ng/mL | IC90 of inhibition of IFNα production from human PBMC (pDCs), second time (human BDCA-2 [1]): 26.8 ng/mL | EC50 (human BDCA-2 variant [2]): 0.133 µg/mL
Molecule: AC144 (antibody)

IC50 of inhibition of IFNα production from human PBMC (pDCs), first time (human BDCA-2 [4]): 0.32 ng/mL | IC50 of inhibition of IFNα production from human PBMC (pDCs), second time (human BDCA-2 [4]): 0.59 ng/mL | IC90 of inhibition of IFNα production from human PBMC (pDCs), first time (human BDCA-2 [4]): 2.03 ng/mL | IC90 of inhibition of IFNα production from human PBMC (pDCs), second time (human BDCA-2 [4]): 1.25 ng/mL | EC50 (human BDCA-2 variant [5]): 0.203 µg/mL
B3: Fully human BDC13-32E3 (antibody, human IgG1, kappa, V domains shown)
VH: B4 VH
VL: B4 VL
modifications: pyroglutamylation at the N terminal of the heavy chain and deletion of lysine at the C terminal of the heavy chain in most of the purified antibody (Example 6)
notes: Human Igγ1 / human Igκ constant regions, expressed in CHOK1SV cells; also called fully human antibody of BDC13-32E3

IC50 of inhibition of IFNα production from human PBMC (pDCs), first time (human BDCA-2 [4]): 0.54 ng/mL | IC50 of inhibition of IFNα production from human PBMC (pDCs), second time (human BDCA-2 [4]): 0.24 ng/mL | IC90 of inhibition of IFNα production from human PBMC (pDCs), first time (human BDCA-2 [4]): 1.19 ng/mL | IC90 of inhibition of IFNα production from human PBMC (pDCs), second time (human BDCA-2 [4]): 1.98 ng/mL | EC50 (human BDCA-2 variant [5]): 0.088 µg/mL
B5: Fully human BDC3-12F5 (antibody, human IgG1, kappa, V domains shown)
VH: B6 VH
VL: B6 VL
modifications: deletion of lysine at the C terminal of the heavy chain in most of the purified antibody (Example 6)
notes: Human Igγ1 / human Igκ constant regions, expressed in CHOK1SV cells; also called fully human antibody of BDC3-12F5
